Like-named read-outs stand apart in the source and are kept apart here.

Assay [1] has as its target CD19 on CD19+ Raji B cells (UniProt P15391). As to the kind of experiment: cell-based or functional assay.
Assay [2] has the same target. The assay is described as follows: cell-based or functional assay. This is another data set of the same source.

UniProt P15391, sequence (P15391 20-556 limits assumed): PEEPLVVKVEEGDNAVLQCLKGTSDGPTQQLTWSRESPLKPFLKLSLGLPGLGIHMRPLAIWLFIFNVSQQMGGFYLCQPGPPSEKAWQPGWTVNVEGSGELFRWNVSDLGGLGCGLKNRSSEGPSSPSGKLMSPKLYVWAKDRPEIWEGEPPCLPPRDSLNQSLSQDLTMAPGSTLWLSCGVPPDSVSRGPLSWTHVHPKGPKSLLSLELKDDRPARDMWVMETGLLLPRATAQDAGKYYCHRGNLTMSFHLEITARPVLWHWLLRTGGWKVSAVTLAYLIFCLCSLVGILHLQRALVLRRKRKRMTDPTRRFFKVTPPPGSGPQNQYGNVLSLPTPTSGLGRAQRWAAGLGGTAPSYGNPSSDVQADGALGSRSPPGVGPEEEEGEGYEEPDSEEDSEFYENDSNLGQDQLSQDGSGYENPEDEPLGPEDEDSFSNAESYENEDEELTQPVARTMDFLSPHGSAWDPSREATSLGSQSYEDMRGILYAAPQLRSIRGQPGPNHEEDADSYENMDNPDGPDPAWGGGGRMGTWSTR

Consider “anti-CD19 CAR (anti-CD19 CAR cassette as described in WO 2012/079000), expressed on transduced CD4+ T-cells”, for which the change in activated cells in the population (CD25 and CD69 staining, flow cytometry, 24 h co-culture) in assay [1] is 3.9 to 12.1%; in assay [2], 0.9 to 84.8%.

The record behind these values is patent publication US20220226381A1.
